{"source": "patent US20140255299A1", "about": "(UNIVERSITY OF CENTRAL FLORIDA RESEARCH FOUNDATION, published 2014)", "proteins": {"B1": {"name": "Bax C-terminal 20-residue peptide (CT20p), wild type (peptide)", "peptide": "Ac-VTIFVAGVLTASLTIWKKMG-NH2", "notes": "Synthetic peptide of the last 20 amino acids of Bax; also called CT20 Bax WT; CT20 peptide"}, "B2": {"name": "Bax C-terminal 20-residue peptide, lysines replaced with glutamates (charge reversal mutant) (peptide)", "peptide": "VTIFVAGVLTASLTIWEEMG", "notes": "K189/K190 replaced by EE; also called CT20 Bax EE; CT20-EE"}, "B3": {"name": "Bax C-terminal 20-residue peptide, lysines replaced with leucines (charge neutralization mutant) (peptide)", "peptide": "VTIFVAGVLTASLTIWLLMG", "notes": "K189/K190 replaced by LL; also called CT20 Bax LL; CT20-LL"}}, "biological_target": "the molecule itself", "assay": "kinetics of calcein release from lipid vesicles; peptide self-association within the membrane"}
{"protein": "B1", "values": [{"measurement": "binding result", "value": "binds"}]}
{"protein": "B2", "values": [{"measurement": "binding result", "value": "binds"}]}
{"protein": "B3", "values": [{"measurement": "binding result", "value": "binds"}]}
